Source: patent EP4717710A1 (UIF (University Industry Foundation), Yonsei University, dated 2026)
Changes are numbered by the printed parent chain. In names and notes the source's numbering stands.

B1: H5 nanobody (VHH)
VHH: QVQLVESGGGSVQAGGSLRLSCAASGSISSITYLGWFRQAPGKEREGVAALSTSSGTTYYADSVKGRFTVSLDNAKNTVYLQMNSLKPEDTALYYCAAADKGREYTLARAKYWYWGQGTQVTVSA
notes: Synthetic nanobody (sybody, convex scaffold) expressed from pSBinit in E. coli and purified on TALON resin; It was detected with anti-Myc, so the tested protein probably carries Myc/His tags; also called WT H5; H5 wild-type nanobody
B2: H5 A110Y (VHH)
VHH: B1 VHH with A110Y
notes: also called H5 A110Y mutant
B3: H5 E104R (VHH)
VHH: B1 VHH with E104R
notes: also called H5 E104R mutant

Tests used:
[1] = target: T1, IL-4R (recombinant protein) (human, UniProt P24394 26-232, biotinylated (Acro Biosystems ILR-H82E9) in the ELISA); test: SPR
T1 construct: Bought recombinant IL-4R; also called IL-4 receptor; IL-4R molecule
T1 sequence (looked up): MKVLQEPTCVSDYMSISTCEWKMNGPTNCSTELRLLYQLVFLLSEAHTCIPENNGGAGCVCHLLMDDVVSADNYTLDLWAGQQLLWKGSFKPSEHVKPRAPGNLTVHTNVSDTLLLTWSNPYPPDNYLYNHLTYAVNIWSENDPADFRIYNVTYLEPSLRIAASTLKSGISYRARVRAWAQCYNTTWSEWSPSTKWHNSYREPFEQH

IL-4R on cells = target: T2, IL-4R on cells (human, UniProt P24394 26-825); test: cell-based or functional assay
T2 sequence (looked up): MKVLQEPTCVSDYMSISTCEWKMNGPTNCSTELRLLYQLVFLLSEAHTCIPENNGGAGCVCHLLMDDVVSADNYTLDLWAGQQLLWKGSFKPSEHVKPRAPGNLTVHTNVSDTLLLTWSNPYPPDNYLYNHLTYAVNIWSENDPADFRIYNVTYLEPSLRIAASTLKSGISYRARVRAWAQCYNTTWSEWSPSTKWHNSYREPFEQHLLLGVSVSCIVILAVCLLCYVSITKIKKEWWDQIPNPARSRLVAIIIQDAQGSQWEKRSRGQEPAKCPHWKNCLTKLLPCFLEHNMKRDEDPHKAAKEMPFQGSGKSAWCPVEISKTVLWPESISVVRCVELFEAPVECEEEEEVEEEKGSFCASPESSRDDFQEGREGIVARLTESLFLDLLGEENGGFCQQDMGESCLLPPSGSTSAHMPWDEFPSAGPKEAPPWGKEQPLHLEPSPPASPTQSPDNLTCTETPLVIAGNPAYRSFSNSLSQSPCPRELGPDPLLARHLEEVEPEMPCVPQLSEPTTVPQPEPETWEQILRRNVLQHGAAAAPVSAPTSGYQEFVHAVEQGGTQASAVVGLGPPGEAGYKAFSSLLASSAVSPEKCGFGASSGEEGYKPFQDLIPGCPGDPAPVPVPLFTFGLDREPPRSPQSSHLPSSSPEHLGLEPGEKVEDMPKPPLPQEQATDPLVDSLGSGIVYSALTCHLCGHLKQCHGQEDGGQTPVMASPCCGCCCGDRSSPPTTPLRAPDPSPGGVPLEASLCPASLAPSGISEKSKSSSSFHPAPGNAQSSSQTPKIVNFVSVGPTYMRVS

[2] = target: T1, IL-4R (recombinant protein); test: ELISA, periplasmic extract captured by anti-c-Myc, 50 nM biotinylated IL-4R against MBP

| Binder | Kd [1] | IL-4 signal blocking in STAT6-luciferase reporter cells (667 pM IL-4, 24 hours) (IL-4R on cells) | fold-change of OD values for IL-4R and MBP [2] |
| --- | --- | --- | --- |
| B1 | 1420 nM | ~2 fold concentration relative to dupilumab | > 1.7 fold |
| B2 | 708 nM | – | – |
| B3 | 1.06 nM | – | – |
